Data: patent US20120270787A1 (GOVERNORS OF THE UNIVERSITY OF ALBERTA, published 2012)
Where no end group is shown, it is not given here.

B1: sCT-SMCC (peptide)
peptide: CSNLSTCVLGKLSQELHKLQTYPRTNTGSGTP
modifications: ends and bridges not checked; also: mixture of mono-, di- and tri-substituted: SMCC group in amide bond on Lys11, Lys18 and/or N-terminus
B2: sCT-BP (peptide)
peptide: B1 peptide
modifications: ends and bridges not checked; also: mixture: SMCC linker carrying thiol bisphosphonate on Lys11, Lys18 and/or N-terminus (2-3 SMCC, 1-3 BP)

Biological target: T1, calcitonin receptor (human, UniProt P30988 25-474)
T1 sequence (looked up): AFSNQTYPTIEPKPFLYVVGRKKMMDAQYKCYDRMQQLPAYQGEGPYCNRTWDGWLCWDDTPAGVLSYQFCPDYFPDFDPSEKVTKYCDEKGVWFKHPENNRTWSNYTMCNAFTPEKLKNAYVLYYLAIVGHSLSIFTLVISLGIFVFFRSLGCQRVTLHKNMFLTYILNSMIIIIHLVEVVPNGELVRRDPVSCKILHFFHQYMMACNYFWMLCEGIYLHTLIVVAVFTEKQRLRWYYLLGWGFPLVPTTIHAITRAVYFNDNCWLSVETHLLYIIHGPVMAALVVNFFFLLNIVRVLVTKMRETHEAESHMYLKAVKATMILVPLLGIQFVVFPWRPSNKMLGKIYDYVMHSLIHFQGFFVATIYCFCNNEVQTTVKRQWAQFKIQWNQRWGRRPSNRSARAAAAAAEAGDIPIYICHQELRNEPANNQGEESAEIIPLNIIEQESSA
Experiment: cell-based or functional assay

Row | Binder | intracellular cAMP in T47D cells, % of native sCT activity, at 50 nM | intracellular cAMP in T47D cells, % of native sCT activity, at 100 nM | intracellular cAMP in T47D cells, % of native sCT activity, at 10 mM (so in the source)
1 | B1 | 98% | 115% | 94.3%
2 | B2 | 102% | 99.8% | 92.8%
